Experimental data as given in patent publication US20200262877A1, “ION CHANNEL-BINDING PEPTIDES AND METHODS OF USE THEREOF” (priority 2017, published 2020).

Legend:
5HT3a = molecular target: T1, 5HT3a (Homo sapiens, UniProt P46098); test: Ion channel panel (IonWorks Barracuda): 5HT3a; format: cell-based
T1 construct: host or cells: HEK293 or CHO
T1 sequence (P46098 whole entry, looked up): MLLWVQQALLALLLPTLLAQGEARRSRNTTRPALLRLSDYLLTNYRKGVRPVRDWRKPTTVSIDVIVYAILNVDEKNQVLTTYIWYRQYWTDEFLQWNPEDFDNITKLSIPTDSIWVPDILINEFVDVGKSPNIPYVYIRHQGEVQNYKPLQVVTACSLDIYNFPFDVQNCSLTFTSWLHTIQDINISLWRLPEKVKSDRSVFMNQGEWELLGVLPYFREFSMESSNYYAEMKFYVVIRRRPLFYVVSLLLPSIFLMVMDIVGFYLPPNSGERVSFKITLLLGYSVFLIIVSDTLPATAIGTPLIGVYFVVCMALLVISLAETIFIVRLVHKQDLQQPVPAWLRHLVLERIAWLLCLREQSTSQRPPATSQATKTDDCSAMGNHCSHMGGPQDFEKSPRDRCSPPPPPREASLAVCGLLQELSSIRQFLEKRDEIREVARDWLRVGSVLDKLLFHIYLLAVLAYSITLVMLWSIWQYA
Method in brief: (§1)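 Transfected HEK293 or CHO cells were exposed for at least 5 min to peptides at 200 nM and 20 μM final, tested in duplicate, in HEPES-buffered physiological saline. Activation was taken as peptide-plus-agonist current over control current ×100, and inhibition as 1 minus that ratio ×100. Each channel's control was its own reference compound.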

α3β4 = molecular target: T2, α3β4 (Homo sapiens, UniProt P30926+P32297); test: Ion channel panel (IonWorks Barracuda): α3β4; format: cell-based; details: 100% = no change, <100% = inhibition
T2 construct: host or cells: HEK293 or CHO
Method in brief: as §1

α4β2 = molecular target: T3, α4β2 (Homo sapiens, UniProt P17787+P43681); test: Ion channel panel (IonWorks Barracuda): α4β2; format: cell-based; details: 100% = no change, <100% = inhibition
T3 construct: host or cells: HEK293 or CHO
Method in brief: as §1

Cav2.1 = molecular target: T4, Cav2.1 (Homo sapiens, UniProt O00555); test: cell-based; details: 100% = no change, <100% = inhibition
T4 construct: host or cells: HEK293 or CHO
Method in brief: as §1

Cav2.2 = molecular target: T5, Cav2.2 (Homo sapiens, UniProt Q00975); test: cell-based; details: 100% = no change, <100% = inhibition
T5 construct: host or cells: HEK293 or CHO
Method in brief: as §1

Kv2.1 = molecular target: T6, Kv2.1 (Homo sapiens, UniProt Q14721); test: cell-based; details: 100% = no change, <100% = inhibition
T6 construct: host or cells: HEK293 or CHO
Method in brief: as §1

GABA = test: Ion channel panel (IonWorks Barracuda): GABA; format: cell-based; details: 100% = no change, <100% = inhibition
Method in brief: as §1

Nav1.5 = Nav1.5 (Homo sapiens, UniProt Q14524); test: in vitro; details: 100% = no change; for Activity of Nav1.5 with peptide, expressed as a percentage of the reference compound: peptide at 0.2 μM; for Activity of Nav1.5 with peptide (percentage of the reference compound): peptide at 20 μM
Method in brief: as §1

hERG = hERG (Homo sapiens, UniProt Q12809); test: in vitro; details: 100% = no change, <100% = inhibition
Method in brief: as §1

Kir2.1 = molecular target: T7, Kir2.1 (Homo sapiens, UniProt P63252); test: Ion channel panel (IonWorks Barracuda): Kir2.1; format: cell-based; details: 100% = no change, <100% = inhibition
T7 construct: host or cells: HEK293 or CHO
Method in brief: as §1

Kv1.1 = molecular target: T8, Kv1.1 (Homo sapiens, UniProt Q09470); test: cell-based; format: cell-based; details: 100% = no change, <100% = inhibition
T8 construct: host or cells: HEK293 or CHO
Method in brief: as §1

Kv1.2 = molecular target: T9, Kv1.2 (Homo sapiens, UniProt P16389); test: cell-based; format: cell-based; details: 100% = no change, <100% = inhibition
T9 construct: host or cells: HEK293 or CHO
Method in brief: as §1

Kv1.3 = molecular target: T10, Kv1.3 (Homo sapiens, UniProt P22001); test: cell-based; format: cell-based; details: 100% = no change, <100% = inhibition
T10 construct: host or cells: HEK293 or CHO
Method in brief: as §1

Nav1.7 = molecular target: T11, Nav1.7 (Homo sapiens, UniProt Q15858); test: cell-based; format: cell-based; details: 100% = no change; for Activity of Nav1.7 with peptide, expressed as a percentage of the reference compound: peptide at 0.2 μM; for Activity of Nav1.7 with peptide (percentage of the reference compound): peptide at 20 μM
T11 construct: host or cells: HEK293 or CHO

NR2A = molecular target: T12, NR2A (Homo sapiens, UniProt Q12879); test: Ion channel panel (IonWorks Barracuda): NR2A; format: cell-based; details: 100% = no change, <100% = inhibition
T12 construct: host or cells: HEK293 or CHO
Method in brief: as §1

NR2B = molecular target: T13, NR2B (Homo sapiens, UniProt Q13224); test: Ion channel panel (IonWorks Barracuda): NR2B; format: cell-based; details: 100% = no change, <100% = inhibition
T13 construct: host or cells: HEK293 or CHO
Method in brief: as §1

TRPA1 = molecular target: T14, TRPA1 (Homo sapiens, UniProt O75762); test: Ion channel panel (IonWorks Barracuda): TRPA1; format: cell-based; details: 100% = no change, <100% = inhibition
T14 construct: host or cells: HEK293 or CHO
Method in brief: as §1

TRPV1 = molecular target: T15, TRPV1 (Homo sapiens, UniProt Q8NER1); test: Ion channel panel (IonWorks Barracuda): TRPV1; format: cell-based; details: 100% = no change, <100% = inhibition
T15 construct: host or cells: HEK293 or CHO
Method in brief: as §1

[1] = first of two Nav1.5 columns (probably TP1)
[2] = second of two Nav1.5 columns (probably TP2)
[3] = first of two Nav1.7 columns (probably TP1)
[4] = second of two Nav1.7 columns (probably TP2)

Sequence of Nav1.5 (Q14524 whole entry): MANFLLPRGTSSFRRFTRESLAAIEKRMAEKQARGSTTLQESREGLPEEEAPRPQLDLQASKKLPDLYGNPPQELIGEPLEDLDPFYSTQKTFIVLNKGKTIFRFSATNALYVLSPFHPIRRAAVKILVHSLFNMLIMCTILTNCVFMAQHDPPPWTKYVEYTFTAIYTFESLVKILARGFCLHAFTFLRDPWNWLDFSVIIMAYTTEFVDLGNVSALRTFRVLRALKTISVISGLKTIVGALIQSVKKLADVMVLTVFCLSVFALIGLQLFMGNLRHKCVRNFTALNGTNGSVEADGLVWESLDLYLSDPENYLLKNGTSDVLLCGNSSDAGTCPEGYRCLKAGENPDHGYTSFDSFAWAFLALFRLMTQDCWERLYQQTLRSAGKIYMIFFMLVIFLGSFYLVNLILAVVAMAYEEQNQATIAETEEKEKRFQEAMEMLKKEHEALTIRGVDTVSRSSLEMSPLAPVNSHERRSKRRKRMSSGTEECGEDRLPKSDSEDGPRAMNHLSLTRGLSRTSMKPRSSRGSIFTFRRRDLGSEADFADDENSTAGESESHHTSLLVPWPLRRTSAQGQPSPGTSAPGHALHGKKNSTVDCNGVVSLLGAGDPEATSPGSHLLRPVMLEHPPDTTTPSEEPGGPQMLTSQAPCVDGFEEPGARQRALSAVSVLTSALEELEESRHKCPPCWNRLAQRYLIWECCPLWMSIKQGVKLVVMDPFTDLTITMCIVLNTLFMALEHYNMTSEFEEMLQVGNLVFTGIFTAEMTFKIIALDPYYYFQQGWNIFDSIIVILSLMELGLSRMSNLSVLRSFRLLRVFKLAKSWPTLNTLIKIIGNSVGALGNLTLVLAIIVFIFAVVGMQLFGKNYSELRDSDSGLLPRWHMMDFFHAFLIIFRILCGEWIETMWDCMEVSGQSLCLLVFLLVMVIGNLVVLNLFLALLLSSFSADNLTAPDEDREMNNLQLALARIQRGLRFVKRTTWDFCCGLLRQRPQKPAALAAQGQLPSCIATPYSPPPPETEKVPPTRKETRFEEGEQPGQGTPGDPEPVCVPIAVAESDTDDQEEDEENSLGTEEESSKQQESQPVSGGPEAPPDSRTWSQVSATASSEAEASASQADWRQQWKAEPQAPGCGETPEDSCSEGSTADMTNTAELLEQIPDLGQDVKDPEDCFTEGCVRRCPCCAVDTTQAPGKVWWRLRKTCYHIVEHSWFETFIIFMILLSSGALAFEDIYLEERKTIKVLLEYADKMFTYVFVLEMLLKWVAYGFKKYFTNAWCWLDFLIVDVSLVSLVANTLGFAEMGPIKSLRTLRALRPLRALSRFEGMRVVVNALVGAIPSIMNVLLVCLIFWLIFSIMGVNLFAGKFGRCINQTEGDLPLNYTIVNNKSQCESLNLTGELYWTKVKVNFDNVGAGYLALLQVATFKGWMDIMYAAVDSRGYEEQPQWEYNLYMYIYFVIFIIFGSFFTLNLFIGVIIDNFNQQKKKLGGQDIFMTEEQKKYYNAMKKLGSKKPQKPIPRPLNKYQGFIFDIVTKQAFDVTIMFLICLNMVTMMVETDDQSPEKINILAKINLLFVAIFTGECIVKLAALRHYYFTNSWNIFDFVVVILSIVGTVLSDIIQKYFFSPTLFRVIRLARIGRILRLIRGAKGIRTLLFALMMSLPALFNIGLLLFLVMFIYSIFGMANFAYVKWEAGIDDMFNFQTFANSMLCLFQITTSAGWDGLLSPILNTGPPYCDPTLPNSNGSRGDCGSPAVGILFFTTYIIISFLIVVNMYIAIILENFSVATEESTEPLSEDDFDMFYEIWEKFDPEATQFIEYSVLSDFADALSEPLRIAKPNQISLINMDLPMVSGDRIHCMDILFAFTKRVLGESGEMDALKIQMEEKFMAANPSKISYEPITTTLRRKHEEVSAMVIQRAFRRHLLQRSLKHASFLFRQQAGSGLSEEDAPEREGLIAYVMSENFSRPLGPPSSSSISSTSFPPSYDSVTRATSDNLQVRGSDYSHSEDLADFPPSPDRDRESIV
T11 sequence (Q15858 whole entry): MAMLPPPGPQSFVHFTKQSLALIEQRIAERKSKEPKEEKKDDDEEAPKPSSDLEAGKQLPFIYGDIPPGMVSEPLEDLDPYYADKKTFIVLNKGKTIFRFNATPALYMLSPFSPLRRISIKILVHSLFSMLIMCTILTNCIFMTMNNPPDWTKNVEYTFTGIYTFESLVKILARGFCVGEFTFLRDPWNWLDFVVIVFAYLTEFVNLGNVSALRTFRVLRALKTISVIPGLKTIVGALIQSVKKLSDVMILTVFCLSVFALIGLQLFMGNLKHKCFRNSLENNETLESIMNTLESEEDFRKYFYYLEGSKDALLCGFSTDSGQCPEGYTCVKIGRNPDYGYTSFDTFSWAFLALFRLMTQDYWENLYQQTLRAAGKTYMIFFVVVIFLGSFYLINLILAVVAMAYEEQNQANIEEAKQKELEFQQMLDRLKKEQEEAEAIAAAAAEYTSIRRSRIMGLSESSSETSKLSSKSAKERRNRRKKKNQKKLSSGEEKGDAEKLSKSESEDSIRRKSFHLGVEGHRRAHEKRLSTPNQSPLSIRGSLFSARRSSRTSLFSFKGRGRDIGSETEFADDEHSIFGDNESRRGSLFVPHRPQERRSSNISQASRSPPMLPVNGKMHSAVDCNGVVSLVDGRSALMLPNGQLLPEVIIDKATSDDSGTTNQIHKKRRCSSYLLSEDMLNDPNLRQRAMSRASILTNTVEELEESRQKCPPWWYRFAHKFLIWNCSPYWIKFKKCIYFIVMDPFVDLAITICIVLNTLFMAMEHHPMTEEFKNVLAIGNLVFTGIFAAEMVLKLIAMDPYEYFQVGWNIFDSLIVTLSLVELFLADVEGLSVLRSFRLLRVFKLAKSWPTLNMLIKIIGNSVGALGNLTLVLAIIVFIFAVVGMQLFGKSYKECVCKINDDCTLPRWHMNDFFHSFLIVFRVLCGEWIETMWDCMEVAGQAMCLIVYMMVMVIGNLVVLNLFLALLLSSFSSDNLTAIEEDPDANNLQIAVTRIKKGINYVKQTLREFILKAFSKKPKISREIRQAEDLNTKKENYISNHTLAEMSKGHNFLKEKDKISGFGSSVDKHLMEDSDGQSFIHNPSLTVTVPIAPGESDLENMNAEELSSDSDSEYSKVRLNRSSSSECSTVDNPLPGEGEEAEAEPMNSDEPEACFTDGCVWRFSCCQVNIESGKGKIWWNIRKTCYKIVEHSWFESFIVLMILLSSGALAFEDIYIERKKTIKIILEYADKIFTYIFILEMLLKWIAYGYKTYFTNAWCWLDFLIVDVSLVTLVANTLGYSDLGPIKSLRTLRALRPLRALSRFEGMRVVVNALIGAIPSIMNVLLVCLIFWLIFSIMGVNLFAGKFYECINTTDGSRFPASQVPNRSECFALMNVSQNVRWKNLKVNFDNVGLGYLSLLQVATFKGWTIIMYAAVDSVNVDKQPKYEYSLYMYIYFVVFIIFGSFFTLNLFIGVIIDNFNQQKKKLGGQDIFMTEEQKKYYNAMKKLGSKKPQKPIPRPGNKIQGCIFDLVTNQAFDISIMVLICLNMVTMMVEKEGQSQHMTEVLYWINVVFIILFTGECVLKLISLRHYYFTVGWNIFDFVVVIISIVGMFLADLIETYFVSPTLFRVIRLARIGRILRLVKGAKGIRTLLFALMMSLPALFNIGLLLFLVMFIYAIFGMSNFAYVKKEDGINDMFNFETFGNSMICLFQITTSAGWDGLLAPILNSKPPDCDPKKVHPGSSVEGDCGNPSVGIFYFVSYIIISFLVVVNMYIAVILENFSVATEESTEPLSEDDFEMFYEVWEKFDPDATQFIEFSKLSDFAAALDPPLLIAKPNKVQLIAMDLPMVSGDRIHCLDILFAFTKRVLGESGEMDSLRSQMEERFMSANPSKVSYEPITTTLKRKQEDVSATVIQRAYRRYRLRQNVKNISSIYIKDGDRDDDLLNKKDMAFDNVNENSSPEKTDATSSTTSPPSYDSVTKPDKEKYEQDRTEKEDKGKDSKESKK
T9 sequence (P16389 whole entry): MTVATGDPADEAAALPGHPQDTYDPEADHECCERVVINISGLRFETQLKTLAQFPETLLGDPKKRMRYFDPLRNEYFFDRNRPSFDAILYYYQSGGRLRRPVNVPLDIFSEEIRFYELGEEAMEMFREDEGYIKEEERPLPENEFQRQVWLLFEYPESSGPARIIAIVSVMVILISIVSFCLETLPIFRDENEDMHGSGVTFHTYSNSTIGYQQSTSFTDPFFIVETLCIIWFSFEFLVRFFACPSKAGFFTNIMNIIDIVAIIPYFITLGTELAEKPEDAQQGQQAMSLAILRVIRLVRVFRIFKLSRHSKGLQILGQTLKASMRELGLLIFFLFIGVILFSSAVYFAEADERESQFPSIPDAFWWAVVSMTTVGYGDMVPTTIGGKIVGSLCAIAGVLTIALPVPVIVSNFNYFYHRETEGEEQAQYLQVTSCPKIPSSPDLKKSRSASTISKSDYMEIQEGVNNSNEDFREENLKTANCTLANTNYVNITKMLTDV
T7 sequence (P63252 whole entry): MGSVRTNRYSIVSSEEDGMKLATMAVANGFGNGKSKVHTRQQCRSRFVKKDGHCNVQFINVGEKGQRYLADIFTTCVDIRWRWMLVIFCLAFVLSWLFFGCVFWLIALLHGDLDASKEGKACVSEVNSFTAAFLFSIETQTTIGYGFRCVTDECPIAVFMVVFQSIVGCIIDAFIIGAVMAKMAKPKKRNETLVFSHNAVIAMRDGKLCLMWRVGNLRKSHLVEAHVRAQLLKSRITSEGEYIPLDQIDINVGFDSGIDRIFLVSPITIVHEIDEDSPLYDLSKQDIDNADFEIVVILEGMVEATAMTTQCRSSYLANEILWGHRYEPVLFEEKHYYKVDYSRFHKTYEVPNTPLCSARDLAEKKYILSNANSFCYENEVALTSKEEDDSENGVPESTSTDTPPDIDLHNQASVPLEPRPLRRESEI

Substance: 10 (GSQVQTNVKCQGGSCASVCRREIGVAAGKCINGKCVCYRN) [compound 10]
- Activity of 5HT3a with peptide (percentage of the reference compound) (5HT3a): 104%
- Activity of 5HT3a with peptide, expressed as a percentage of the reference compound (5HT3a): 90%
- Activity of a3b4 with peptide, expressed as a percentage of the reference compound (α3β4; peptide at 0.2 μM): 97%
- Activity of a3b4 with peptide (percentage of the reference compound) (α3β4; peptide at 20 μM): 104%
- Activity of a4b2 with peptide, expressed as a percentage of the reference compound (α4β2; peptide at 0.2 μM): 96%
- Activity of a4b2 with peptide (percentage of the reference compound) (α4β2; peptide at 20 μM): 94%
- Activity of Cav2.1 with peptide, expressed as a percentage of the reference compound (Cav2.1; peptide at 0.2 μM): 104%
- Activity of Cav2.1 with peptide (percentage of the reference compound) (Cav2.1; peptide at 20 μM): 96%
- Activity of Cav2.2 with peptide, expressed as a percentage of the reference compound (Cav2.2; peptide at 0.2 μM): 98%
- Activity of Cav2.2 with peptide (percentage of the reference compound) (Cav2.2; peptide at 20 μM): 94%
- Activity of Kv2.1 with peptide, expressed as a percentage of the reference compound (Kv2.1; peptide at 0.2 μM): 88%
- Activity of Kv2.1 with peptide (percentage of the reference compound) (Kv2.1; peptide at 20 μM): 109%
- Activity of GABA with peptide, expressed as a percentage of the reference compound (GABA; peptide at 0.2 μM): 129%
- Activity of GABA with peptide (percentage of the reference compound) (GABA; peptide at 20 μM): 111%
- Activity of Nav1.5 with peptide, expressed as a percentage of the reference compound (Nav1.5; [1]): 93%
- Activity of Nav1.5 with peptide, expressed as a percentage of the reference compound (Nav1.5; [2]): 90%
- Activity of Nav1.5 with peptide (percentage of the reference compound) (Nav1.5; [1]): 114%
- Activity of Nav1.5 with peptide (percentage of the reference compound) (Nav1.5; [2]): 116%
- Activity of hERG with peptide, expressed as a percentage of the reference compound (hERG; peptide at 0.2 μM): 97%
- Activity of hERG with peptide (percentage of the reference compound) (hERG; peptide at 20 μM): 80%
- Activity of Kir2.1 with peptide, expressed as a percentage of the reference compound (Kir2.1; peptide at 0.2 μM): 100%
- Activity of Kir2.1 with peptide (percentage of the reference compound) (Kir2.1; peptide at 20 μM): 92%
- Activity of Kv1.1 with peptide, expressed as a percentage of the reference compound (Kv1.1; peptide at 0.2 μM): 117%
- Activity of Kv1.1 with peptide (percentage of the reference compound) (Kv1.1; peptide at 20 μM): 84%
- Activity of Kv1.2 with peptide, expressed as a percentage of the reference compound (Kv1.2; peptide at 0.2 μM): 135%
- Activity of Kv1.2 with peptide (percentage of the reference compound) (Kv1.2; peptide at 20 μM): 77%
- Activity of Kv1.3 with peptide, expressed as a percentage of the reference compound (Kv1.3; peptide at 0.2 μM): 101%
- Activity of Kv1.3 with peptide (percentage of the reference compound) (Kv1.3; peptide at 20 μM): 93%
- Activity of Nav1.7 with peptide, expressed as a percentage of the reference compound (Nav1.7; [3]): 105%
- Activity of Nav1.7 with peptide, expressed as a percentage of the reference compound (Nav1.7; [4]): 98%
- Activity of Nav1.7 with peptide (percentage of the reference compound) (Nav1.7; [3]): 106%
- Activity of Nav1.7 with peptide (percentage of the reference compound) (Nav1.7; [4]): 90%
- Activity of NR2A with peptide, expressed as a percentage of the reference compound (NR2A; peptide at 0.2 μM): 84%
- Activity of NR2A with peptide (percentage of the reference compound) (NR2A; peptide at 20 μM): 65%
- Activity of NR2B with peptide, expressed as a percentage of the reference compound (NR2B; peptide at 0.2 μM): 82%
- Activity of NR2B with peptide (percentage of the reference compound) (NR2B; peptide at 20 μM): 98%
- Activity of TRPA1 with peptide, expressed as a percentage of the reference compound (TRPA1; peptide at 0.2 μM): 108%
- Activity of TRPA1 with peptide (percentage of the reference compound) (TRPA1; peptide at 20 μM): 107%
- Activity of TRPV1 with peptide, expressed as a percentage of the reference compound (TRPV1; peptide at 0.2 μM): 111%
- Activity of TRPV1 with peptide (percentage of the reference compound) (TRPV1; peptide at 20 μM): 98%
